Assay results published in publication PMC11811267 (Journal of Separation Science, 2025).

Assays:
[1] = Autosampler (re-injection) stability at 4°C for 24 h; format: in vitro ADME; conditions: autosampler (AS) 4°C, triplicate, 2D-LC-MS/MS
Method: (§3) The stability tests of all insulins were performed at two concentration levels (193 and 7752 pg/mL). One set of tests was performed with artificial plasma and the other set with artificial plasma containing 1% PIC. Each concentration level was tested in triplicate. These QC samples were quantified using an artificial plasma calibration curve without PIC, and the obtained concentrations were compared with the nominal concentrations of the low quality control (LQC) and high quality control (HQC), which were set to 100%. To evaluate the stability of insulins in artificial plasma containing 1% PIC, we considered the concentration measured at time zero as the baseline (100%). All subsequent changes in concentration were calculated relative to this initial measurement.
(§4) Short‐term stability, long‐term stability, and freeze‐thaw stability were evaluated in this study. LQC and HQC samples were stored at room temperature and in a refrigerator for 3, 6, and 24 h to assess short‐term (bench‐top) stability and at 4°C in the autosampler for 24 h to assess re‐injection stability.

[2] = Long-term stability in artificial plasma at −80°C; format: in vitro ADME; conditions: triplicate, 2D-LC-MS/MS
Method: as §3, §4

[3] = Long-term stability in artificial plasma at −20°C; format: in vitro ADME; conditions: triplicate, 2D-LC-MS/MS
Method: as §3, §4

[4] = Freeze-thaw stability in artificial plasma after storage at −80°C; format: in vitro ADME; conditions: stored at −80°C, triplicate, 2D-LC-MS/MS; for 24 h, change (%): cycle at 24 h; for 48 h, change (%): cycle at 48 h; for 72 h, change (%): cycle at 72 h
Method: as §3, §4

[5] = Short-term stability in refrigerator (4°C) in artificial plasma with and without 1% PIC; conditions: triplicate, 2D-LC-MS/MS
Method: (§1) A mixed standard solution containing all insulins at a concentration of 10,000 ng/mL was obtained by diluting the stock solutions with artificial plasma. This stock solution was further diluted with artificial plasma to produce a series of calibration standards at the following concentrations: 50, 100, 150, 250, 500, 1,000, 1500, 2500, 5000, 10 000, and 15 000 pg/mL. Quality control (QC) samples were prepared in artificial plasma at 200, 800, 3000, and 9000 pg/mL and analyzed prior to real human plasma samples. For method validation, four concentration levels were prepared in artificial plasma at 50, 125, 6000, and 13 000 pg/mL. Two concentration levels (193 and 7752 pg/mL) were evaluated for stability testing.
(§2) Each concentration level was tested in triplicate.

[6] = Short-term (bench-top) stability at room temperature in artificial plasma with and without 1% PIC; conditions: triplicate, 2D-LC-MS/MS
Method: as §1, §2

[7] = Insulin concentrations in patient plasma samples (2D-LC-MS/MS); format: in vivo, human
Method: Patient samples were collected in K2EDTA tubes, and centrifuged, and 250 µL aliquots were either analyzed immediately or stored at −80°C for analysis the following day. A previously published method [12] was used for sample preparation, including protein precipitation, conversion of analytes to anions, and micro SPE (µSPE) using Oasis MAX multimodal sorbent (Waters) in a 96‐well design. […] QuanRecovery with MaxPeak 700 µL plates (Waters) were used for elution after SPE and subsequent injection for 2D‐LC‐MS/MS analysis.
To assess the clinical applicability of the proposed method, 30 patient samples (16 males and 15 females) were analyzed. Plasma samples (collected in K2EDTA tubes) were supplied to the Department of Forensic Medicine.

[8] = Adsorption test in three types of glass vials; format: physicochemical; conditions: 15 ng/mL in 6.7% acetic acid in water:methanol (60:40, v/v), UHPLC-MS/MS, Figure S10
Method: We prepared stock solutions of all insulins, which were then transferred to three different types of glass vials and analyzed by LC‐MS/MS. For the adsorption test, a mixture of all insulins at a concentration of 15 ng/mL was prepared in a solvent containing 6.7% acetic acid in a water:methanol mixture (60:40, v/v). The mixture was then transferred to three types of vials and analyzed by UHPLC‐MS/MS. This experiment was performed prior to the optimization of the chromatographic method.

[9] = artificial plasma (BZ273) with 1% PIC, 193 pg/mL, % of concentration at time zero
[10] = artificial plasma (BZ273) with 1% PIC, 7752 pg/mL, % of concentration at time zero
[11] = artificial plasma (BZ273) without PIC, 7752 pg/mL, % of nominal concentration
[12] = artificial plasma (BZ273) with 1% PIC, 193 pg/mL, % of concentration at time zero (=100%)
[13] = artificial plasma (BZ273) with 1% PIC, 7752 pg/mL, % of concentration at time zero (=100%)
[14] = artificial plasma (BZ273) without PIC, 193 pg/mL, % of nominal concentration (=100%)
[15] = artificial plasma (BZ273) without PIC, 7752 pg/mL, % of nominal concentration (=100%)

Human insulin
24 h AS, change (%) ([1]; extracted samples from artificial plasma with 1% PIC, 193 pg/mL, % of concentration at time zero (=100%)): 105.9% | 24 h AS, change (%) ([1]; extracted samples from artificial plasma without PIC, 7752 pg/mL, % of nominal concentration (=100%)): 100.5% | 1 week, change (%) ([2]; 1 week, artificial plasma (BZ273) without PIC, 7752 pg/mL, % of nominal concentration): 100.1% | 2 weeks, change (%) [2, 9]: 105.8% | 2 weeks, change (%) [2, 10]: 111.9% | 2 weeks, change (%) [2, 11]: 106.0% | 1 week, change (%) [3, 9]: 70.1% | 1 week, change (%) [3, 10]: 54.9% | 2 weeks, change (%) [3, 10]: 61.8% | 2 weeks, change (%) ([3]; artificial plasma (BZ273) without PIC, 193 pg/mL, % of nominal concentration): 106.3% | 3 weeks, change (%) ([3]; 3 weeks, artificial plasma (BZ273) with 1% PIC, 7752 pg/mL, % of concentration at time zero): 25.9% | 24 h, change (%) [4, 10]: 111.6% | 24 h, change (%) [4, 11]: 100.2% | 48 h, change (%) [4, 9]: 116.6% | 48 h, change (%) [4, 11]: 94.6% | 72 h, change (%) [4, 10]: 92.9% | 72 h, change (%) [4, 11]: 87.1% | 3 h 4°C, change (%) [5, 12]: 100.4% | 24 h 4°C, change (%) ([5]; artificial plasma (BZ273) with 1% PIC, 193 pg/mL, 24 h, % of concentration at time zero (=100%)): 87.9% | 6 h 4°C, change (%) [5, 13]: 98.6% | 6 h 4°C, change (%) [5, 14]: 105.6% | 3 h 4°C, change (%) [5, 15]: 90.2% | 0 h, change (%) [6, 12]: 100.0% | 24 h, change (%) [6, 12]: 72.1% | 0 h, change (%) [6, 13]: 100.0% | 6 h, change (%) [6, 13]: 86.4% | 24 h, change (%) [6, 13]: 67.4% | 0 h, change (%) [6, 14]: 100.1% | 0 h, change (%) [6, 15]: 99.1% | 6 h, change (%) [6, 15]: 95.1% | Concentration range (pg/mL) in patient samples ([7]; human plasma (K2EDTA), 30 patient samples from the Department of Forensic Medicine (unexplained deaths), range over quantified samples): 219.1 to 6065.2 pg/mL | Concentration in a real patient sample ([7]; human plasma, single patient sample of Figure 2): LLOQ | Difference in concentration between vial types (adsorption to container surfaces) [8]: up to 50%
